Measured values from FireProtDB.

B1: Ribonuclease HI, P0A7Y4 (parent)
chain: MLKQVEIFTDGSCLGNPGPGGYGAILRYRGREKTFSAGYTRTTNNRMELMAAIVALEALKEHCEVILSTDSQYVRQGITQWIHNWKKRGWKTADKKPVKNVDLWQRLDAALGQHQIKWEWVKGHAGHPENERCDELARAAAMNPTLEDTGYQVEV
B2: Growth factor receptor-bound protein 2, Q08012 (parent)
chain: MEAIAKHDFSATADDELSFRKTQILKILNMEDDSNWYRAELDGKEGLIPSNYIEMKNHDWYYGRITRADAEKLLSNKHEGAFLIRISESSPGDFSLSVKCPDGVQHFKVLRDAQSKFFLWVVKFNSLNELVEYHRTASVSRSQDVKLRDMIPEEMLVQALYDFVPQESGELDFRRGDVITVTDRSDENWWNGEIGNRKGIFPATYVTPYHS
B3: Lipase B, P41365 (parent)
chain: MKLLSLTGVAGVLATCVAATPLVKRLPSGSDPAFSQPKSVLDAGLTCQGASPSSVSKPILLVPGTGTTGPQSFDSNWIPLSTQLGYTPCWISPPPFMLNDTQVNTEYMVNAITALYAGSGNNKLPVLTWSQGGLVAQWGLTFFPSIRSKVDRLMAFAPDYKGTVLAGPLDALAVSAPSVWQQTTGSALTTALRNAGGLTQIVPTTNLYSATDEIVQPQVSNSPLDSSYLFNGKNVQAQAVCGPLFVIDHAGSLTSQFSYVVGRSALRSTTGQARSADYGITDCNPLPANDLTPEQKVAAAALLAPAAAAIVAGPKQNCEPDLMPYARPFAVGKRTCSGIVTP
B4: Pyrrolidone-carboxylate peptidase, O73944 (parent)
chain: MKVLVTGFEPFGGEKINPTERIAKDLDGIKIGDAQVFGRVLPVVFGKAKEVLEKTLEEIKPDIAIHVGLAPGRSAISIERIAVNAIDARIPDNEGKKIEDEPIVPGAPTAYFSTLPIKKIMKKLHERGIPAYISNSAGLYLCNYVMYLSLHHSATKGYPKMSGFIHVPYIPEQIIDKIGKGQVPPSMCYEMELEAVKVAIEVALEELL
B5: Triosephosphate isomerase, glycosomal, P04789 (parent)
chain: MSKPQPIAAANWKCNGSQQSLSELIDLFNSTSINHDVQCVVASTFVHLAMTKERLSHPKFVIAAQNAIAKSGAFTGEVSLPILKDFGVNWIVLGHSERRAYYGETNEIVADKVAAAVASGFMVIACIGETLQERESGRTAVVVLTQIAAIAKKLKKADWAKVVIAYEPVWAIGTGKVATPQQAQEAHALIRSWVSSKIGADVAGELRILYGGSVNGKNARTLYQQRDVNGFLVGGASLKPEFVDIIKATQ
B6: Decorsin, P17350 (parent)
chain: APRLPQCQGDDQEKCLCNKDECPPGQCRFPRGDADPYCE

Variants of: B1
Conditions: Escherichia coli (strain K12); pH 3; Thermal; CD; glycine-HCl 10 mM; reversible: yes; structure 2RN2; whole UniProt chain shown
For K95G, the Tm was 49.8 °C, the “change of melting temperature, mutant - wild type (higher = more stable)” value (“change of melting temperature, mutant” below) was 5.7 °C and the “unfolding enthalpy (van 't Hoff)” value was 102 kcal/mol.

Same assay, conditions: Escherichia coli (strain K12); pH 5.5; 49.8 °C; Thermal; CD; Sodium acetate 20 mM; reversible: yes; structure 2RN2; whole UniProt chain shown
In the case of K95G, the “ddG of mutation (higher = less stable)” value is reported as -1.9 kcal/mol.

Same assay, conditions: Escherichia coli (strain K12); pH 5.5; Thermal; CD; Sodium acetate 20 mM; reversible: yes; structure 2RN2; whole UniProt chain shown
In the case of K95G, the Tm is reported as 52 °C, the “change of melting temperature, mutant” value is reported as 6.8 °C and the “unfolding enthalpy (van 't Hoff)” value is reported as 90.4 kcal/mol.

Same assay, conditions: Escherichia coli (strain K12); pH 5.5; 25 °C; Urea; CD; sodium acetate 20 mM; KCl 50 mM; structure 2RN2; whole UniProt chain shown
In the case of I53D, the “ddG of mutation (higher = less stable)” value is reported as 4.1 kcal/mol, the denaturant m value is reported as 2 kcal/mol/M and the unfolding free energy is reported as 5.6 kcal/mol.
In the case of I53F, the “ddG of mutation (higher = less stable)” value is reported as 3.9 kcal/mol, the denaturant m value is reported as 2 kcal/mol/M and the unfolding free energy is reported as 5.8 kcal/mol.
For I53L, the “ddG of mutation (higher = less stable)” value was 1.4 kcal/mol, the denaturant m value was 2.3 kcal/mol/M and the unfolding free energy was 8.3 kcal/mol.

Variants of: B2
Conditions: Drosophila melanogaster; pH 6; 20 °C; GdnHCl; Fluorescence; phosphate 50 mM; structure 2A36; whole UniProt chain shown
With T22G the “ddG of mutation (higher = less stable)” value was -3.6 kcal/mol, the denaturant m value was 2.2 kcal/mol/M and the unfolding free energy was 4 kcal/mol.

Variants of: B3
Conditions: Pseudozyma antarctica; pH 7; Thermal; CD; Tris-HCl 50 mM; reversible: No; structure 1TCA; whole UniProt chain shown
In the case of V246D, the Tm is reported as 55.7 °C and the “change of melting temperature, mutant” value is reported as -2 °C.
In the case of V235I A306E, the Tm is reported as 52.1 °C and the “change of melting temperature, mutant” value is reported as -5.6 °C.
In the case of V235I, the Tm is reported as 58.5 °C and the “change of melting temperature, mutant” value is reported as 0.8 °C.

Same assay, conditions: Pseudozyma antarctica; pH 7; Thermal; Differential Scanning Fluorimetry; HEPES 10mM; structure 1TCA; whole UniProt chain shown
In the case of N194C F329C, the Tm is reported as 56.3 °C and the “change of melting temperature, mutant” value is reported as 1.5 °C.
For Q181C L188C, the Tm was 46.1 °C and the “change of melting temperature, mutant” value was -8.7 °C.
With A187C K333C the Tm was 55.9 °C and the “change of melting temperature, mutant” value was 1.1 °C.

Variants of: B4
Conditions: Pyrococcus furiosus (strain ATCC 43587 / DSM 3638 / JCM 8422 / Vc1); pH 7; 60 °C; GdnHCl; CD; Tris-HCl 20 mM; reversible: yes; structure 1IOF; whole UniProt chain shown
With C142S C188S the denaturant m value was 4.16 kcal/mol/M, the “denaturant midpoint (higher = more stable)” value was 3.4 M and the unfolding free energy was 13.5 kcal/mol.

Variants of: B5
Conditions: Trypanosoma brucei brucei; pH 7; Thermal; CD; 3-(N-morpholino)propanesulfonic acid/dithiothreitol 20 mM/0.02 mM; EDTA 0.02 mM; structure 3TIM; whole UniProt chain shown
In the case of R191A, the Tm is reported as 47.3 °C.
With R191S the Tm was 51.6 °C.
D227A gave a Tm of 48.7 °C.
In the case of D227N, the Tm is reported as 49.3 °C.

Same assay, conditions: Trypanosoma brucei brucei; pH 7; Thermal; CD; MOPS 20 mM; reversible: no; structure 1TPE; whole UniProt chain shown
For T75R G76Q, the Tm was 52 °C and the “change of melting temperature, mutant” value was -5 °C.

Same assay, conditions: Trypanosoma brucei brucei; pH 7.4; Thermal; CD; MOPS 20 mM; EDTA 1 mM; reversible: no; structure 1TPE; whole UniProt chain shown
For C14F, the Tm was 46.5 °C and the “change of melting temperature, mutant” value was -4.9 °C.

Variants of: B6
Conditions: Macrobdella decora; pH 7; Thermal; CD; Na2HPO4 10 mM; reversible: Yes; structure 1DEC; whole UniProt chain shown
In the case of P24A, the Tm is reported as 66.5 °C and the “change of melting temperature, mutant” value is reported as -7.5 °C.
For P23A P24A, the Tm was 50 °C and the “change of melting temperature, mutant” value was -24 °C.
